The results in this text go back to patent US20250332297A1, “DLL3-SPECIFIC BINDING CONSTRUCTS AND THEIR USE IN RADIOTHERAPY” (MOLECULAR PARTNERS AG, priority 2024, published 2025).

In one series the target is T1, mouse serum albumin (Mus musculus, UniProt P07724).
T1 construct: purchased Sigma-Aldrich
In words: SPR binding to mouse serum albumin (Example 18). Conditions: immobilized MSA, 1:1 Langmuir, Table 21. The method, then:
SPR multi-trace analyses were performed similarly as described in previous Examples. The following ankyrin repeat proteins analyzed: (i) MAM279 (SEQ ID NO: 11) (with a Glycine-Serine (GS) at its N-terminal end); and (ii) MAM279 (SEQ ID NO: 11), with a Glycine-Serine (GS) at its N-terminal end and a tag (SEQ ID NO: 10) at its C-terminal end (resulting in GS-MAM279-tag (SEQ ID NO: 15)), conjugated to the chelator DOTAM as described in Example 3.
All analytes (3-fold dilution ranging from 600-7.41 nM) were injected in succession for 240 s and dissociation was recorded for 600 s using a constant flow of 25 μl/min (HSA) or 100 μl/min (MSA) (25 μl/min). […] The obtained SPR traces were used to determine the DARPin-serum albumin interaction parameters, and results are summarized in Table 21.

A further series deals with Dog DLL3-NTD. In words: SPR binding to dog DLL3-NTD (Example 11). How it is done: The truncated dog DLL3 construct, comprising only the N-Terminal Domain (NTD, residues 27-189), was designed similarly to the human truncated target protein, with a C-terminal 6×His and Avi-tag. Co-expression was carried in Expi293F cells and purification was performed via Ni-NTA affinity chromatography followed by SEC. The final material was monomeric on size exclusion and stored in PBS pH 7.4 at the final concentration of ˜0.1-0.2 mg/ml.
The binding of 2D ankyrin repeat protein MAM279 as well as of MAM279 conjugated to the chelator DOTAM (the conjugation was performed as described in Example 3) to different target proteins was analyzed by Surface Plasmon Resonance (SPR). Specifically, the proteins analyzed were (i) MAM279 (SEQ ID NO: 11), with a Glycine-Serine (GS) at its N-terminal end and an N-terminal His-tag (SEQ ID NO: 19); and (ii) MAM279 (SEQ ID NO: 11), with a Glycine-Serine (GS) at its N-terminal end and a tag (SEQ ID NO: 10) at its C-terminal end (resulting in GS-MAM279-tag (SEQ ID NO: 15)), conjugated to the chelator DOTAM as described in Example 3.
A surface plasmon resonance (SPR) assay was used to determine the binding kinetics of the two proteins (i.e. MAM279 with and without conjugation to chelator) to different targets: the Extra-Cellular Domain (ECD) of human DLL3, the ECD of cynomolgus monkey DLL3, the N-Terminal Domain (NTD) only of human DLL3, and the NTD dog DLL3. The data were generated using BioRad ProteOn instrument in SPR running buffer (PBS, pH 7.4 containing 0.005% Tween 20©). […] The chip was coated with biotinylated target to reach a signal intensity of 1516 RU (human ECD), 257 RU (human NTD), 1500 RU (cyno ECD) and 228 RU (dog NTD). All analytes (various concentrations in 3-fold dilutions ranging from 500-6.17 nM) were injected in succession for 240 s (100 μl/min) and dissociation was recorded for 10800 s (100 μl/min). Each injection was followed by a regeneration step with 16 mM H3PO4 for 18 s. […] The obtained SPR traces were used to determine on-rate and off-rate interaction parameters.

Series [1] has as its system NCI-H82 lung carcinoma cells. Description: Internalization in NCI-H82 cells. The series is classed as cell-based, human. Conditions: AF488 label with anti-AF488 quencher, 37° C. How it is done: Studies were performed to determine whether a half-life extended DLL3-specific ankyrin repeat protein, as described herein, is internalized upon binding to cells expressing DLL3 on their surface. The specific ankyrin repeat protein tested was MAM279 (SEQ ID NO: 11) (with a Glycine-Serine (GS) at its N-terminal end). […] As a comparison, internalization was also tested for Rova antibody. Internalization was investigated on different cell types expressing DLL3 on their surface, namely SHP-77 lung carcinoma cells, NCI-H82 lung carcinoma cells, and hDLL3-expressing MC38 (MC38-hDLL3) colon carcinoma cells. In brief, DARPin and antibody were pre-incubated and labelled with fluorescently labelled detection antibodies (Fab-AF488) and added to 5×10^4 cells/well in a 96-well plate (100 nM DARPin, 10 nM antibody control) and incubated for 1h on ice. Cells were washed once with PBS and then incubated for different timepoints (0 min, 15 min, 30 min, 1 h and/or 4 h) at 37° C. in PBS with 2% FCS. […] Raw fcs files were exported and analyzed using FlowJo software. MFI values of live AF488-positive cells were exported from FlowJo and plotted using GraphPad Prism software. % internalization was determined by normalizing to non-binding control DARPin (for MAM279) or non-binding isotype control IgG (for Rova). […]

[2] abbreviates: SPR, immobilized biotinylated target, 1:1 Langmuir, Table 15.

T1 sequence (P07724 25-608): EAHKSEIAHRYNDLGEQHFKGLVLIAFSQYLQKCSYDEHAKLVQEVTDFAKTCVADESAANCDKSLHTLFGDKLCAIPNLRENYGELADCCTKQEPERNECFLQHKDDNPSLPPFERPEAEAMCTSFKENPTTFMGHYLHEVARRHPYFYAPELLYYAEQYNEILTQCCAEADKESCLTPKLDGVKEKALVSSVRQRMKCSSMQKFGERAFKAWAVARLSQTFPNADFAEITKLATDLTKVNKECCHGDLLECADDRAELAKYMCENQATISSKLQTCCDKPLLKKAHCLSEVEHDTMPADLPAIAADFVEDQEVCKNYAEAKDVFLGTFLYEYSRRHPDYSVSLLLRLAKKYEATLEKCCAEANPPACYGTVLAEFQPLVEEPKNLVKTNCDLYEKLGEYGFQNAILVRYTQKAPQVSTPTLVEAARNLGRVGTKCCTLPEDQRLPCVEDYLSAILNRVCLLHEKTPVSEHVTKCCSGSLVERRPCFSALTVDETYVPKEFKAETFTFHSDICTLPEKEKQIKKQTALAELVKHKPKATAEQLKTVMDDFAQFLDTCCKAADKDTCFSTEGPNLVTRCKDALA

B1: MAM279: Two domain (2D) ankyrin repeat protein: serum albumin-specific domain (SEQ ID NO: 7), PT linker, DLL3-specific domain of MAM093 (protein)
chain: DLGKKLLEAARAGQDDEVRELLKAGADVNAKDYFSHTPLHLAARNGHLKIVEVLLKAGADVNAKDFAGKTPLHLAADAGHLEIVEVLLKAGADVNAQDIFGKTPADIAADAGHEDIAEVLQKAAGSPTPTPTTPTPTPTTPTPTPTGSDLGKKLLAAAAQGQDDEVRELLKAGANVNAKDLFGYTPLHLAAWRGHLEIVEVLLKAGADVNAKDAAGETPLHLAAWFGHLEIVEVLLKAGADVNAQDLQGKTPADLAAKEGHEDIAEVLQKAA
modifications: Ankyrin repeat protein (MAM279)
B1: in the series with mouse serum albumin, the Kd was determined as 144 nM, the “Koff MSA” value is 0.0383 s⁻¹ and the “Kon MSA” value stood at 267000 M⁻¹ s⁻¹. Also, in the series on Dog DLL3-NTD (SPR KD comparison), the “fold lower affinity for dog DLL3-NTD than for human DLL3-ECD” value was “about 10 fold”. On Dog DLL3-NTD (setting [2]), the Kd was 1.2 nM, the “Koff Dog DLL3-NTD” value is 5.58e-05 s⁻¹ and the “Kon Dog DLL3-NTD” value came to 46400 M⁻¹ s⁻¹. For the same molecule, the internalization result in series [1] is “similarly internalized”.

B2: MAM279-DOTAM: GS-MAM279-tag (SEQ ID NO: 15) conjugated to the chelator DOTAM via C-terminal tag and maleimide connector, no radionuclide (conjugate)
chain: GSDLGKKLLEAARAGQDDEVRELLKAGADVNAKDYFSHTPLHLAARNGHLKIVEVLLKAGADVNAKDFAGKTPLHLAADAGHLEIVEVLLKAGADVNAQDIFGKTPADIAADAGHEDIAEVLQKAAGSPTPTPTTPTPTPTTPTPTPTGSDLGKKLLAAAAQGQDDEVRELLKAGANVNAKDLFGYTPLHLAAWRGHLEIVEVLLKAGADVNAKDAAGETPLHLAAWFGHLEIVEVLLKAGADVNAQDLQGKTPADLAAKEGHEDIAEVLQKAAGSGSC
modifications: DOTAM chelator via maleimide on C-terminal tag; Ankyrin repeat protein with tag (GS-MAM279-tag)
In the case of B2, in the series with mouse serum albumin, the “Koff MSA” value amounted to 0.0425 s⁻¹ and the “Kon MSA” value is 155000 M⁻¹ s⁻¹. For the same molecule, in the series on Dog DLL3-NTD (setting [2]), the “Koff Dog DLL3-NTD” value came to 4.86e-05 s⁻¹ and the “Kon Dog DLL3-NTD” value was 33400 M⁻¹ s⁻¹.

B3: Rova: Rova antibody, DLL3-binding benchmark antibody used as positive control and comparison (antibody, chains of the INN, looked up, V domains shown)
VH: QVQLVQSGAEVKKPGASVKVSCKASGYTFTNYGMNWVRQAPGQGLEWMGWINTYTGEPTYADDFKGRVTMTTDTSTSTAYMELRSLRSDDTAVYYCARIGDSSPSDYWGQGTLVTVSS
VL: EIVMTQSPATLSVSPGERATLSCKASQSVSNDVVWYQQKPGQAPRLLIYYASNRYTGIPARFSGSGSGTEFTLTISSLQSEDFAVYYCQQDYTSPWTFGQGTKLEIK
For B3, in series [1], the internalization entry was “internalization”.
